Experimental findings from the Human Domainome abundance scans (Beltran et al. 2025) are described below.

± gives the uncertainty stated by the source.

First the molecules themselves.
B1: Androgen receptor, residues 557 to 632; numbered along this chain, P10275 (parent)
chain: QKTCLICGDEASGCHYGALTCGSCKVFFKRAAEGKQKYLCASRNDCTIDKFRRKNCPSCRLRKCYEAGMTLGARKL

Variants of B1 are the subject of the data set. The experiment in a line: abundance fitness (aPCA) (normalised: wild type 0, dead -1); higher = more abundant; growth selection in yeast, the domain comes from the species named. The note with it: Homo sapiens.
Consider QKTCLICGDEASGCHYGALTCGSCLVFFKRAAEGKQKYLCASRNDCTIDKFRRKNCPSCRLRKCYEAGMTLGARKL [K25L], for which the abundance fitness is -0.099 ± 0.021.
Then QKTCLICGDEASGCHYGALTCGSCKVFFHRAAEGKQKYLCASRNDCTIDKFRRKNCPSCRLRKCYEAGMTLGARKL [K29H], with -0.024 ± 0.1.
Then QKTCLICGDEASGCHYGALTCGSCKVFFLRAAEGKQKYLCASRNDCTIDKFRRKNCPSCRLRKCYEAGMTLGARKL [K29L], with -0.331 ± 0.086.
Take QKTCLICGDEASGCHYGALTCGSCKVFFMRAAEGKQKYLCASRNDCTIDKFRRKNCPSCRLRKCYEAGMTLGARKL [K29M]: the abundance fitness was -0.245 ± 0.15.
Then QKTCLICGDEASGCHYGALTCGSCKVFFSRAAEGKQKYLCASRNDCTIDKFRRKNCPSCRLRKCYEAGMTLGARKL [K29S], with -0.248 ± 0.11; and QKTCLICGDEASGCHYGALTCGSCKVFFGRAAEGKQKYLCASRNDCTIDKFRRKNCPSCRLRKCYEAGMTLGARKL [K29G], with -0.039 ± 0.068; and QKTCLICGDEASGCHYGALTCGSCKVFFYRAAEGKQKYLCASRNDCTIDKFRRKNCPSCRLRKCYEAGMTLGARKL [K29Y], with -0.148 ± 0.14.
Consider QKTCLICGDEASGCHYGALTCGSCKVFFPRAAEGKQKYLCASRNDCTIDKFRRKNCPSCRLRKCYEAGMTLGARKL [K29P], for which the abundance fitness was -0.377 ± 0.07.
Then QKTCLICGDEASGCHYGALTCGSCKVFFERAAEGKQKYLCASRNDCTIDKFRRKNCPSCRLRKCYEAGMTLGARKL [K29E], with 0.202 ± 0.11.
Regarding QKTCLICGDEASGCHYGALTCGSCKVFFIRAAEGKQKYLCASRNDCTIDKFRRKNCPSCRLRKCYEAGMTLGARKL [K29I], the abundance fitness was -0.353 ± 0.099.
For the variant QKTCLICGDEASGCHYGALTCGSCKVFFRRAAEGKQKYLCASRNDCTIDKFRRKNCPSCRLRKCYEAGMTLGARKL [K29R], the abundance fitness was -0.075 ± 0.057.
For QKTCLICGDEASGCHYGALTCGSCKVFFFRAAEGKQKYLCASRNDCTIDKFRRKNCPSCRLRKCYEAGMTLGARKL [K29F], the abundance fitness came out at 0.019 ± 0.24.
With QKTCLICGDEASGCHYGALTCGSCKVFFNRAAEGKQKYLCASRNDCTIDKFRRKNCPSCRLRKCYEAGMTLGARKL [K29N], the abundance fitness is -0.123 ± 0.14.
As for QKTCLICGDEASGCHYGALTCGSCKVFFQRAAEGKQKYLCASRNDCTIDKFRRKNCPSCRLRKCYEAGMTLGARKL [K29Q], the abundance fitness is -0.169 ± 0.11.
The same measure for QKTCLICGDEASGCHYGALTCGSCKVFFVRAAEGKQKYLCASRNDCTIDKFRRKNCPSCRLRKCYEAGMTLGARKL [K29V]: -0.215 ± 0.08.
Then QKTCLICGDEASGCHYGALTCGSCKVFFWRAAEGKQKYLCASRNDCTIDKFRRKNCPSCRLRKCYEAGMTLGARKL [K29W], with 0.035 ± 0.15; and QKTCLICGDEASGCHYGALTCGSCKVFFDRAAEGKQKYLCASRNDCTIDKFRRKNCPSCRLRKCYEAGMTLGARKL [K29D], with -0.258 ± 0.2.
The same measure for QKTCLICGDEASGCHYGALTCGSCKVFFCRAAEGKQKYLCASRNDCTIDKFRRKNCPSCRLRKCYEAGMTLGARKL [K29C]: -0.49 ± 0.28; for QKTCLICGDEASGCHYGALTCGSCKHFFKRAAEGKQKYLCASRNDCTIDKFRRKNCPSCRLRKCYEAGMTLGARKL [V26H]: 0.039 ± 0.071.
Consider QKTCLICGDEASGCHYGALTCGSCKSFFKRAAEGKQKYLCASRNDCTIDKFRRKNCPSCRLRKCYEAGMTLGARKL [V26S], for which the abundance fitness turned out to be 0.038 ± 0.035.
With QKTCLICGDEASGCHYGALTCGSCKDFFKRAAEGKQKYLCASRNDCTIDKFRRKNCPSCRLRKCYEAGMTLGARKL [V26D], the abundance fitness amounted to 0.043 ± 0.077.
The same measure for QKTCLICGDEASGCHYGALTCGSCKWFFKRAAEGKQKYLCASRNDCTIDKFRRKNCPSCRLRKCYEAGMTLGARKL [V26W]: -0.181 ± 0.037; for QKTCLICGDEASGCHYGALTCGSCKRFFKRAAEGKQKYLCASRNDCTIDKFRRKNCPSCRLRKCYEAGMTLGARKL [V26R]: 0.019 ± 0.026.
Then QKTCLICGDEASGCHYGALTCGSCKQFFKRAAEGKQKYLCASRNDCTIDKFRRKNCPSCRLRKCYEAGMTLGARKL [V26Q], with 0.007 ± 0.05; and QKTCLICGDEASGCHYGALTCGSCKLFFKRAAEGKQKYLCASRNDCTIDKFRRKNCPSCRLRKCYEAGMTLGARKL [V26L], with 0.008 ± 0.033; and QKTCLICGDEASGCHYGALTCGSCKTFFKRAAEGKQKYLCASRNDCTIDKFRRKNCPSCRLRKCYEAGMTLGARKL [V26T], with -0.002 ± 0.04.
Then QKTCLICGDEASGCHYGALTCGSCKIFFKRAAEGKQKYLCASRNDCTIDKFRRKNCPSCRLRKCYEAGMTLGARKL [V26I], with 0.013 ± 0.051; and QKTCLICGDEASGCHYGALTCGSCKPFFKRAAEGKQKYLCASRNDCTIDKFRRKNCPSCRLRKCYEAGMTLGARKL [V26P], with -0.772 ± 0.13.
As to QKTCLICGDEASGCHYGALTCGSCKGFFKRAAEGKQKYLCASRNDCTIDKFRRKNCPSCRLRKCYEAGMTLGARKL [V26G], the abundance fitness was -0.001 ± 0.046.
For the variant QKTCLICGDEASGCHYGALTCGSCKFFFKRAAEGKQKYLCASRNDCTIDKFRRKNCPSCRLRKCYEAGMTLGARKL [V26F], the abundance fitness was -0.13 ± 0.058.
QKTCLICGDEASGCHYGALTCGSCKMFFKRAAEGKQKYLCASRNDCTIDKFRRKNCPSCRLRKCYEAGMTLGARKL [V26M]: the abundance fitness was 0.053 ± 0.042.
As to QKTCLICGDEASGCHYGALTCGSCKCFFKRAAEGKQKYLCASRNDCTIDKFRRKNCPSCRLRKCYEAGMTLGARKL [V26C], the abundance fitness is -0.012 ± 0.058.
As to QKTCLICGDEASGCHYGALTCGSCKKFFKRAAEGKQKYLCASRNDCTIDKFRRKNCPSCRLRKCYEAGMTLGARKL [V26K], the abundance fitness was 0.058 ± 0.037.
Turning to QKTCLICGDEASGCHYGALTCGSCKEFFKRAAEGKQKYLCASRNDCTIDKFRRKNCPSCRLRKCYEAGMTLGARKL [V26E], the abundance fitness was 0.014 ± 0.071.
The same measure for QKTCLICGDEASGCHYGALTCGSCKAFFKRAAEGKQKYLCASRNDCTIDKFRRKNCPSCRLRKCYEAGMTLGARKL [V26A]: -0.108 ± 0.12; for QKTCLICGDEASGCHYGALTCGSCKNFFKRAAEGKQKYLCASRNDCTIDKFRRKNCPSCRLRKCYEAGMTLGARKL [V26N]: 0.069 ± 0.05.
